The record followed here is publication PMC3137634 (2011).

Experiment [1] deals with T1, Human TNFR1/Fc (human, UniProt P19438 30-211).
T1 chain: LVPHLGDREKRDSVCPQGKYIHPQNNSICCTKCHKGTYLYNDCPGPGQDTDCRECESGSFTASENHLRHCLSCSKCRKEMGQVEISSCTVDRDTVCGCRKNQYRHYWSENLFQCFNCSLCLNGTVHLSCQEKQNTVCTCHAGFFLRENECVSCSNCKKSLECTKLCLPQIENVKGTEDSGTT
Briefly: SPR.

The target in experiment [2] is T1, Human TNFR1/Fc. Nature of the experiment: SPR.

B1: recombinant HP986 (natural protein)
chain: METFFSLHVPNRRIKQNGIIDEKSLEKIQERKNLSSLLYEHRARIIPLYKRINENHAKNKTINICENNLKLFYKDHQVCVNIDKKEIKLRYSEDEDDFRKYIIGGWFEEYIYCELLELLDKQVICDLRLNMILGVGNTNATQGDKHPIYTELDIAFSDGKNLYVAECKSGELKNKGVLAALSADAQIFGGANAKCILISIDGNLGQVLQEKVKILNIEFIFKYFKKNIENYINNSRR
Consider B1, for which binding in experiment [1] was put at a Kd of 72.1 nM. In experiment [2], the Ka turned out to be 1.39e+07 M⁻¹.
